{"source": "patent US11046771", "about": "(dated 2021)", "binders": {"B1": {"name": "098 (PC1014-098) (antibody, V domains shown)", "VH": "EVQLLESGGGLVQPGGSLRLSCAASGFTFSNYGMSWVRQAPGKGLEWVSAISGSAYSTYYADSVKGRFTISRDNSKNTLWLQMNSLRAEDTAVYYCAKAHYHGSGSYYTLFDYWGQGTLVTVSS", "VL": "DIQMTQSPSSLSASVGDRVTITCRASQGISSWLAWYQQKPEKAPKSLIYAASSLQSGVPSRFSGSGSGTDFTLTISSLQPEDFATYYCQQYNSYPYTFGQGTKLEIK"}}, "key": {"[1]": {"molecular_target": "T1, HER2 (cell surface) (human, UniProt P04626)", "experiment": "FACS, A431 cells"}, "[2]": {"molecular_target": "T1, HER2 (cell surface)", "experiment": "FACS, AU565 cells"}}}
{"binder": "B1", "values": [{"measurement": "EC50", "setting": "[1]", "value": 0.068, "unit": "µg/mL"}, {"measurement": "EC50", "setting": "[2]", "value": 0.336, "unit": "µg/mL"}]}
